Patent publication EP3446126B1 (Université Libre de Bruxelles, dated 2024)

Molecular target: human DPP6 protein (as used in the affinity analysis) (human, UniProt P42658 117-865, limits assumed)
Test: affinity analysis versus human DPP6 protein; method not stated

human DPP6 protein (as used in the affinity analysis), sequence (P42658 117-865 limits assumed): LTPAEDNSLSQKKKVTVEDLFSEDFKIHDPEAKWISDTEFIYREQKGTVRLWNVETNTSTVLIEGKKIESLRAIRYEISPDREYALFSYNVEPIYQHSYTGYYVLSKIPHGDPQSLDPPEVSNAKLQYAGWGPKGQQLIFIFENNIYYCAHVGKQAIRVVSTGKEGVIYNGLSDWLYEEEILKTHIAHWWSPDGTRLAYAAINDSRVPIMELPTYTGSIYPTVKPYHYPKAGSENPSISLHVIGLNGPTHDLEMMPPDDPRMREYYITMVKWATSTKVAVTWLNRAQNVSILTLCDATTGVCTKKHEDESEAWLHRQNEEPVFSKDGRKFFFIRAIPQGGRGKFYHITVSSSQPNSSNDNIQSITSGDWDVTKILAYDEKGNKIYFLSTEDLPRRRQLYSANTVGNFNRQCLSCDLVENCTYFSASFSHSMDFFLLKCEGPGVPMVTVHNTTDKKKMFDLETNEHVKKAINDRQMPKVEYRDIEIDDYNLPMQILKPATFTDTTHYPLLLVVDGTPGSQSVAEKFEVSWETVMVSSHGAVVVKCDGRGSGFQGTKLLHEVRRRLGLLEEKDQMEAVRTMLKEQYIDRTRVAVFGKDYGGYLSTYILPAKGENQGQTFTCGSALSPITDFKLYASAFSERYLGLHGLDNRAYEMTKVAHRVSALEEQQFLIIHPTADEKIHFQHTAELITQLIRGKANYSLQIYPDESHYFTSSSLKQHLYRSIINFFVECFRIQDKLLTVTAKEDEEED

B1: nanobody 4hD29 (VHH)
VHH: QVQLQESGGGLVQPGGSLRLSCAASGFTFSSNYMTWVRQAPGKGPEWVSGINPDGSSTYYADSVKGRFTISRDNAKNTLYLQMNSLKSEDTALYKCATGAAPRIPTTLRGQGTQVTVSS
notes: Dromedary nanobody from an immune phage display library; also called Nb 4hD29; 4hD29 Nb
Question: Which Kd does the source give for B1 here?
Answer: The Kd was 1.2 nM.
